Measurements as given in patent publication US20230212254A1 (published 2023).

Target: T1, FITC-labeled recombinant human PSMA protein (Acro, #PSA-HF244) (human, UniProt Q04609 44-750, FITC label)
T1 construct: Bought reagent
Assay: flow cytometry, gating of CAR(+) cells for T cell subset analysis (FIG. 79)
Procedure: Eight days after the start of stimulation, the CAR-T cells constructed in Example 8 were analyzed for T cell subsets using a flow cytometer: they were classified into stem cell-like memory T cells (T memory stem cells, CD45RA⁺CCR7⁺), central memory T cells (CD45RA⁻CCR7⁺), effector memory T cells (CD45RA⁻ CCR7⁻) and effector T cells (CD45RA⁺CCR7⁻) according to the presence or absence of the expression of CD45RA and CCR7. […] In addition, when analyzing PSMA-specific CAR(+) cells, FITC-labeled recombinant human PSMA protein (Acro, #PSA-HF244) was used to stain the CAR.

T1 sequence (Q04609 44-750 limits assumed): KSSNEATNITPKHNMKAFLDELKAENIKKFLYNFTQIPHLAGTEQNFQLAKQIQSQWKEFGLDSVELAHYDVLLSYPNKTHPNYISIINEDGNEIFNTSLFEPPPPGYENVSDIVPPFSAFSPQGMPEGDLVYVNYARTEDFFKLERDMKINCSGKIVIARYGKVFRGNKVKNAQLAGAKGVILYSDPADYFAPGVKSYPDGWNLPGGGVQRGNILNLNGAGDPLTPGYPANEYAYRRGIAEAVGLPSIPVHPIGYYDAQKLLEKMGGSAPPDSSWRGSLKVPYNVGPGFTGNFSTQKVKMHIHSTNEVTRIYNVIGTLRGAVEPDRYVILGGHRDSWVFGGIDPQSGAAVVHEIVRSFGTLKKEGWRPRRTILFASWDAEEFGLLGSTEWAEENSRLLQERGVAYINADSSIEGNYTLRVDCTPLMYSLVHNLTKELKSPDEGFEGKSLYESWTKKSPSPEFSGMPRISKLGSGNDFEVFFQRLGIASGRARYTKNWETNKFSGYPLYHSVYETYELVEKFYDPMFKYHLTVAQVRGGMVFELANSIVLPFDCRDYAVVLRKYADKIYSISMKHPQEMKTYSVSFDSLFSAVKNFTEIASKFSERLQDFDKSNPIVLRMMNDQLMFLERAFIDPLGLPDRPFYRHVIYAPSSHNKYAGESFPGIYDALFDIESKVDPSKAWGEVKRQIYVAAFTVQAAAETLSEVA

B1: PSMA-specific CAR (Pbbz): scFv derived from the PSMA-specific J591 antibody, CD8 hinge-transmembrane domain, 4-1BB co-stimulatory domain, CD3ζ intracellular … (other)
chain: DIVMTQSHKFMSTSVGDRVSIICKASQDVGTAVDWYQQKPGQSPKLLIYWASTRHTGVPDRFTGSGSGTDFTLTITNVQSEDLADYFCQQYNSYPLTFGAGTMLDLKRGGGGSGGGGSGGGGSEVQLQQSGPELKKPGTSVRISCKTSGYTFTEYTIHWVKQSHGKSLEWIGNINPNNGGTTYNQKFEDKATLTVDKSSSTAYMELRSLTSEDSAVYYCAAGWNFDYWGQGTTLTVSSTTTPAPRPPTPAPTIASQPLSLRPEACRPAAGGAVHTRGLDFACDIYIWAPLAGTCGVLLLSLVITLYCKRGRKKLLYIFKQPFMRPVQTTQEEDGCSCRFPEEEEGGCELRVKFSRSADAPAYQQGQNQLYNELNLGRREEYDVLDKRRGRDPEMGGKPRRKNPQEGLYNELQKDKMAEAYSEIGMKGERRRGKGHDGLYQGLSTATKDTYDALHMQALPPR
notes: The Pbbz#F, #C, #S2 and #FCS2 cells are treated as carrying the same CAR
B1: binds.
